Results taken from US20220089698A1 (published 2022).

Assays:
[1] = biological target: HIV gp120 Bal (HIV); assay: single-point ELISA; further: test concentration or dose not given here
[2] = biological target: HIV gp120 CAAN (HIV); assay: single-point ELISA; further: test concentration or dose not given here

B1: 1.33.36-1 (antibody, human IgG1, kappa)
heavy: QVQLVQSGAEVKKPGASVRVSCKASGYNIRDYFIHWWRQAPGQGLQWVGWINPKTGQPNNPRQFQGRVTLTRHASWDFDTFSFYMDLKALRSDDTATYFCARQRSDYWDFDVWGSGTQVTVSSASTKGPSVFPLAPSSKSTSGGTAALGCLVKDYFPEPVTVSWNSGALTSGVHTFPAVLQSSGLYSLSSVVTVPSSSLGTQTYICNVNHKPSNTKVDKKVEPKSCDKTHTCPPCPAPELLAGPDVFLFPPKPKDTLMISRTPEVTCVVVDVSHEDPEVKFNWYVDGVEVHNAKTKPREEQYNSTYRVVSVLTVLHQDWLNGKEYKCKVSNKALPLPEEKTISKAKGQPREPQVYTLPPSREEMTKNQVSLTCLVKGFYPSDIAVEWESNGQPENNYKTTPPVLDSDGSFFLYSKLTVDKSRWQQGNVFSCSVLHEALHSHYTQKSLSLSPGK
light: DIQMTQSPSSLSASVGDRVTITCQANGYLNWYQQKPGKAPKLLIYDGSNLETGVPSRFSGSRWGQEYTLTISSLQPEDIATYFCQVYEFVTPGTNLDIKRTVAAPSVFIFPPSDEQLKSGTASVVCLLNNFYPREAKVQWKVDNALQSGNSQESVTEQDSKDSTYSLSSTLTLSKADYEKHKVYACEVTHQGLSSPVTKSFNRGEC
ELISA (A450) [1]: 0.94 A450
ELISA (A450) [2]: 0.82 A450

B2: 1.2.2-1 (antibody, human IgG1)
heavy: QVQLLQSGAEVKKPGASVRVSCEASGYNIRDYFIHWWRQAPGQGLQWVGWINPKTGQPNNPRQFQGRVSLTRHASWDFDTFSFYMDLKALRSDDTAVYFCARQRSDYWDFDVWGSGTMVTVSSASTKGPSVFPLAPSSKSTSGGTAALGCLVKDYFPEPVTVSWNSGALTSGVHTFPAVLQSSGLYSLSSVVTVPSSSLGTQTYICNVNHKPSNTKVDKKVEPKSCDKTHTCPPCPAPELLAGPDVFLFPPKPKDTLMISRTPEVTCVVVDVSHEDPEVKFNWYVDGVEVHNAKTKPREEQYNSTYRVVSVLTVLHQDWLNGKEYKCKVSNKALPLPEEKTISKAKGQPREPQVYTLPPSREEMTKNQVSLTCLVKGFYPSDIAVEWESNGQPENNYKTTPPVLDSDGSFFLYSKLTVDKSRWQQGNVFSCSVLHEALHSHYTQKSLSLSPGK
VL: DIQMTQSPSSLSASVGDTVTITCQANGYLNWYQQKPGKAPKLLIYDGSKLERGVPSRFSGRRWGQEYNLTINNLQPEDIATYFCQVYEFVVPGTKVDIK
ELISA (A450) [1]: 0.91 A450
ELISA (A450) [2]: 0.8 A450

B3: Antibody A-1 (antibody, human IgG1, kappa)
heavy: QVQLLQSGAAVTKPGASVRVSCEASGYNIRDYFIHWWRQAPGQGLQWVGWINPKTGQPNNPRQFQGRVSLTRHASWDFDTFSFYMDLKALRSDDTAVYFCARQRSDYWDFDVWGSGTQVTVSSASTKGPSVFPLAPSSKSTSGGTAALGCLVKDYFPEPVTVSWNSGALTSGVHTFPAVLQSSGLYSLSSVVTVPSSSLGTQTYICNVNHKPSNTKVDKKVEPKSCDKTHTCPPCPAPELLAGPDVFLFPPKPKDTLMISRTPEVTCVVVDVSHEDPEVKFNWYVDGVEVHNAKTKPREEQYNSTYRVVSVLTVLHQDWLNGKEYKCKVSNKALPLPEEKTISKAKGQPREPQVYTLPPSREEMTKNQVSLTCLVKGFYPSDIAVEWESNGQPENNYKTTPPVLDSDGSFFLYSKLTVDKSRWQQGNVFSCSVLHEALHSHYTQKSLSLSPGK
light: DIQMTQSPSSLSASVGDTVTITCQANGYLNWYQQRRGKAPKLLIYDGSKLERGVPSRFSGRRWGQEYNLTINNLQPEDIATYFCQVYEFVVPGTRLDLKRTVAAPSVFIFPPSDEQLKSGTASVVCLLNNFYPREAKVQWKVDNALQSGNSQESVTEQDSKDSTYSLSSTLTLSKADYEKHKVYACEVTHQGLSSPVTKSFNRGEC
ELISA (A450) [1]: 0.91 A450
ELISA (A450) [2]: 1.06 A450

B4: 1.35.36-1 (antibody, human IgG1, kappa)
heavy: QVQLVQSGAEVKKPGASVRVSCKASGYNIRDYFMHWWRQAPGQGLQWVGWINPKTGQPNNPRQFQGRVTMTRHASWDFDTFSFYMDLSRLRSDDTATYFCARQRTDYWDFDVWGQGTMVTVSSASTKGPSVFPLAPSSKSTSGGTAALGCLVKDYFPEPVTVSWNSGALTSGVHTFPAVLQSSGLYSLSSVVTVPSSSLGTQTYICNVNHKPSNTKVDKKVEPKSCDKTHTCPPCPAPELLAGPDVFLFPPKPKDTLMISRTPEVTCVVVDVSHEDPEVKFNWYVDGVEVHNAKTKPREEQYNSTYRVVSVLTVLHQDWLNGKEYKCKVSNKALPLPEEKTISKAKGQPREPQVYTLPPSREEMTKNQVSLTCLVKGFYPSDIAVEWESNGQPENNYKTTPPVLDSDGSFFLYSKLTVDKSRWQQGNVFSCSVLHEALHSHYTQKSLSLSPGK
light: DIQMTQSPSSLSASVGDRVTITCQANGYLNWYQQKPGKAPKLLIYDGSNLETGVPSRFSGSRWGQEYTLTISSLQPEDIATYFCQVYEFVTPGTNLDIKRTVAAPSVFIFPPSDEQLKSGTASVVCLLNNFYPREAKVQWKVDNALQSGNSQESVTEQDSKDSTYSLSSTLTLSKADYEKHKVYACEVTHQGLSSPVTKSFNRGEC
ELISA (A450) [1]: 0.85 A450
ELISA (A450) [2]: 0.67 A450

B5: 1.36.36-1 (antibody, human IgG1, kappa)
heavy: QVQLVQSGAEVKKPGASVRVSCKASGYNIRDYFMHWWRQAPGQGLQWVGWINPKTGQPNNPRQFQGRVTMTRHASWDFDTFSAYMDLSRLRSDDTATYFCARQRTDYWDFDVWGQGTMVTVSSASTKGPSVFPLAPSSKSTSGGTAALGCLVKDYFPEPVTVSWNSGALTSGVHTFPAVLQSSGLYSLSSVVTVPSSSLGTQTYICNVNHKPSNTKVDKKVEPKSCDKTHTCPPCPAPELLAGPDVFLFPPKPKDTLMISRTPEVTCVVVDVSHEDPEVKFNWYVDGVEVHNAKTKPREEQYNSTYRVVSVLTVLHQDWLNGKEYKCKVSNKALPLPEEKTISKAKGQPREPQVYTLPPSREEMTKNQVSLTCLVKGFYPSDIAVEWESNGQPENNYKTTPPVLDSDGSFFLYSKLTVDKSRWQQGNVFSCSVLHEALHSHYTQKSLSLSPGK
light: DIQMTQSPSSLSASVGDRVTITCQANGYLNWYQQKPGKAPKLLIYDGSNLETGVPSRFSGSRWGQEYTLTISSLQPEDIATYFCQVYEFVTPGTNLDIKRTVAAPSVFIFPPSDEQLKSGTASVVCLLNNFYPREAKVQWKVDNALQSGNSQESVTEQDSKDSTYSLSSTLTLSKADYEKHKVYACEVTHQGLSSPVTKSFNRGEC
ELISA (A450) [1]: 1.12 A450
ELISA (A450) [2]: 0.34 A450

B6: 1.3.1-1 (antibody, human IgG1, kappa)
heavy: QVSLLQSGAAVTKPGASVRVSCEASGYNIRDYFIHWWRQAPGQGLQWVGWINPKTGQPNNPRQFQGRVSLTRHASWDFDTFSFYMDLKALRSDDTAVYFCARQRSDYWDFDVWGSGTQVTVSSASTKGPSVFPLAPSSKSTSGGTAALGCLVKDYFPEPVTVSWNSGALTSGVHTFPAVLQSSGLYSLSSVVTVPSSSLGTQTYICNVNHKPSNTKVDKKVEPKSCDKTHTCPPCPAPELLAGPDVFLFPPKPKDTLMISRTPEVTCVVVDVSHEDPEVKFNWYVDGVEVHNAKTKPREEQYNSTYRVVSVLTVLHQDWLNGKEYKCKVSNKALPLPEEKTISKAKGQPREPQVYTLPPSREEMTKNQVSLTCLVKGFYPSDIAVEWESNGQPENNYKTTPPVLDSDGSFFLYSKLTVDKSRWQQGNVFSCSVLHEALHSHYTQKSLSLSPGK
light: DIQMTQSPSSLSASVGDTVTITCQANGYLNWYQQRRGKAPKLLIYDGSKLERGVPSRFSGRRWGQEYNLTINNLQPEDIATYFCQVYEFVVPGTRLDLKRTVAAPSVFIFPPSDEQLKSGTASVVCLLNNFYPREAKVQWKVDNALQSGNSQESVTEQDSKDSTYSLSSTLTLSKADYEKHKVYACEVTHQGLSSPVTKSFNRGEC
ELISA (A450) [1]: 0.97 A450
ELISA (A450) [2]: 0.94 A450

B7: 1.2.1-1 (antibody, human IgG1, kappa)
heavy: QVQLLQSGAEVKKPGASVRVSCEASGYNIRDYFIHWWRQAPGQGLQWVGWINPKTGQPNNPRQFQGRVSLTRHASWDFDTFSFYMDLKALRSDDTAVYFCARQRSDYWDFDVWGSGTMVTVSSASTKGPSVFPLAPSSKSTSGGTAALGCLVKDYFPEPVTVSWNSGALTSGVHTFPAVLQSSGLYSLSSVVTVPSSSLGTQTYICNVNHKPSNTKVDKKVEPKSCDKTHTCPPCPAPELLAGPDVFLFPPKPKDTLMISRTPEVTCVVVDVSHEDPEVKFNWYVDGVEVHNAKTKPREEQYNSTYRVVSVLTVLHQDWLNGKEYKCKVSNKALPLPEEKTISKAKGQPREPQVYTLPPSREEMTKNQVSLTCLVKGFYPSDIAVEWESNGQPENNYKTTPPVLDSDGSFFLYSKLTVDKSRWQQGNVFSCSVLHEALHSHYTQKSLSLSPGK
light: DIQMTQSPSSLSASVGDTVTITCQANGYLNWYQQRRGKAPKLLIYDGSKLERGVPSRFSGRRWGQEYNLTINNLQPEDIATYFCQVYEFVVPGTRLDLKRTVAAPSVFIFPPSDEQLKSGTASVVCLLNNFYPREAKVQWKVDNALQSGNSQESVTEQDSKDSTYSLSSTLTLSKADYEKHKVYACEVTHQGLSSPVTKSFNRGEC
ELISA (A450) [1]: 0.93 A450
ELISA (A450) [2]: 1.01 A450

B8: 1.34.36-1 (antibody, human IgG1, kappa)
heavy: QVQLVQSGAEVKKPGASVRVSCKASGYNIRDYFIHWWRQAPGQGLQWVGWINPKTGQPNNPRQFQGRVTLTRHASWDFDTFSFYMDLKALRSDDTAVYFCARQRTDYWDFDVWGSGTQVTVSSASTKGPSVFPLAPSSKSTSGGTAALGCLVKDYFPEPVTVSWNSGALTSGVHTFPAVLQSSGLYSLSSVVTVPSSSLGTQTYICNVNHKPSNTKVDKKVEPKSCDKTHTCPPCPAPELLAGPDVFLFPPKPKDTLMISRTPEVTCVVVDVSHEDPEVKFNWYVDGVEVHNAKTKPREEQYNSTYRVVSVLTVLHQDWLNGKEYKCKVSNKALPLPEEKTISKAKGQPREPQVYTLPPSREEMTKNQVSLTCLVKGFYPSDIAVEWESNGQPENNYKTTPPVLDSDGSFFLYSKLTVDKSRWQQGNVFSCSVLHEALHSHYTQKSLSLSPGK
light: DIQMTQSPSSLSASVGDRVTITCQANGYLNWYQQKPGKAPKLLIYDGSNLETGVPSRFSGSRWGQEYTLTISSLQPEDIATYFCQVYEFVTPGTNLDIKRTVAAPSVFIFPPSDEQLKSGTASVVCLLNNFYPREAKVQWKVDNALQSGNSQESVTEQDSKDSTYSLSSTLTLSKADYEKHKVYACEVTHQGLSSPVTKSFNRGEC
ELISA (A450) [1]: 0.94 A450
ELISA (A450) [2]: 0.71 A450
